Marks after values point to notes of the source that are not given here.
B1: TrpBA: wild-type E. coli DH5α tryptophan synthase, E.C.4.2.1.20, α- and β-subunits coexpressed (protein, UniProt P0A877 1-268; P0A879 2-397, looked up)
Tryptophan synthase alpha …: MERYESLFAQLKERKEGAFVPFVTLGDPGIEQSLKIIDTLIEAGADALELGIPFSDPLADGPTIQNATLRAFAAGVTPAQCFEMLALIRQKHPTIPIGLLMYANLVFNKGIDEFYAQCEKVGVDSVLVADVPVEESAPFRQAALRHNVAPIFICPPNADDDLLRQIASYGRGYTYLLSRAGVTGAENRAALPLNHLVAKLKEYNAAPPLQGFGISAPDQVKAAIDAGAAGAISGSAIVKIIEQHINEPEKMLAALKVFVQPMKAATRS
Tryptophan synthase beta chain: TTLLNPYFGEFGGMYVPQILMPALRQLEEAFVSAQKDPEFQAQFNDLLKNYAGRPTALTKCQNITAGTNTTLYLKREDLLHGGAHKTNQVLGQALLAKRMGKTEIIAETGAGQHGVASALASALLGLKCRIYMGAKDVERQSPNVFRMRLMGAEVIPVHSGSATLKDACNEALRDWSGSYETAHYMLGTAAGPHPYPTIVREFQRMIGEETKAQILEREGRLPDAVIACVGGGSNAIGMFADFINETNVGLIGVEPGGHGIETGEHGAPLKHGRVGIYFGMKAPMMQTEDGQIEESYSISAGLDFPSVGPQHAYLNSTGRADYVSITDDEALEAFKTLCLHEGIIPALESSHALAHALKMMRENPDKEQLLVVNLSGRGDKDIFTVHDILKARGEI
B2: TDC1: C. accuminata tryptophan decarboxylase expressed in E. coli DH5α (protein, UniProt P93082 1-502, looked up)
Tryptophan decarboxylase TDC1: MGSLDSNYDTESPASVGQFNPLDPEEFRKQAHCIVDFIADYYKNIESYPVLSQVDPGYRHSRLGKNAPYRSEPFESILKDVQKDIIPGMTHWMSPNFFAHFPATVSSAAFVGEMLCTCFNSVGFNWLASPAATELEMVVIDWLANMLKLPKSFMFSGTGGGVLQGTTSEAILCTLIAASPMHFEIVGVKTSTSFVVYGSDQTHSTYAKACKLAGILPCNIRSIPTTADSNFSVSPLLLRRAIEADKAAGMVPLYICATVGTTSTTAIDPLSSLADVANDYGVWFHVDAAYAGSACICPEFRHYLDGIERADSLSLSPHKWLLSYLDCCCLWVKSPSLLVKALSTDPEYLKNQPSESKSVVDYKDWQVGTGRRFKALRLWFVMRSYGVANLQSHIRTDVQMAKMFEGFVKSDPRFEILVPRVFSLVCFRLNPISGSDPTGTEALNRKLLDWVNSTGRVYMTHTKVGGIYMLRFAVGATLTEKRHVSSAWKLIKEGADVLLKED
B3: TDC2: C. accuminata tryptophan decarboxylase expressed in E. coli DH5α (protein, UniProt P93083 1-498, looked up)
Tryptophan decarboxylase TDC2: MGSIDSNYDTESAGQCRPLEPEEFRKQAHQMVDFIADYYKNIESYPVLSQVEPGYLQSRLPETAPYRPEPFESILKDVHKDIIPGVTHWLSPNFFAYFPATVSSAAFVGEMLCTCFNAVGFNWLASPAELELEMVVMDWLASMLKLPNSFTFLGTGGGVIQGTTSEAILCTLIAARDRALESIGVDSIHKLVVYGSDQTHSTYAKACNLAGILPCNIRSIRTEAVANFSLSPDSLHREIEADVAAGMVPLYLCATVGTTSTTAIDSLSPLADVANDYGLWFHVDAAYAGSACICPEFRHYLDGIERADSLSLSPHKWLLSYLDCCCLWVKRPSVLVKALSTDPEYLKNKPSESNSVVDFKDWQVGTGRRFKALRLWFVMRSYGVANLQSHIRSDIQMAKMFEEFVNSDPRFEIVVPRVFSLVCFRLNPFSKSDPCNTELLNRKLLEWVNSTGQVYITHTKVGGVYMLRFAVGATLTEEHHVSAAWKLIREGADALLCS

Assays:
[1] = tested on: TrpBA and TDC1; assay: Coupled enzyme synthesis monitored by HPLC; format: biochemical; settings: L-serine, PLP, pH 8.5 phosphate buffer, 37° C.
Protocol: To a solution containing L-serine (25 μmol), pyridoxal phosphate (0.05 μmol) and TrpBA (0.02 to 1.5 units, depending on the substrate), TDC1 (0.2 mL 0.6 units) and KPi buffer (0.05 mmol, pH 7.5) in a volume of 0.8 mL were added […] of 5 mM indole derivative in 20% v/v ethanol/water. The mixture was incubated at 37° C. and aliquots were quenched and analyzed as described for Example 8. In cases where tryptamine and/or tryptophan standards were not available, peaks were collected for mass spectral analysis. Electrospray mass spectral analyses were performed.
Mixtures containing indole, L-serine, PLP and TDC1 were incubated in pH 8.5 phosphate buffer, analyzing aliquots by HPLC, as described in Example 12.
The procedure used in Example 24 was carried out by substituting indole with 2-methylindole, 4-hydroxymethylindole, 5-methoxy-, 5-hydroxymethyl-, 5-methoxycarbonyl, and 5,6-dimethoxyindole.

[2] = target: T1, TrpBA (Escherichia coli, UniProt P0A879); assay: Relative rates of tryptophan derivative synthesis by HPLC, TrpBA; format: biochemical, E. coli; settings: initial rate estimated by HPLC, indole = 100%, L-serine
T1 construct: made in house; host or cells: E. coli LMG194 (pBAD) or BL-21 (pET)
Protocol: Reaction mixtures were prepared as in Example 6 and were incubated at 37° C. Aliquots (100 μL) were removed and quenched by addition of to 300 μL of 0.5 M sodium citrate, pH 3.0 in 10% v/v acetonitrile/water in 2 ml microcentrifuge tubes. Following centrifugation for 10 min at 13,000×g, the supernatants were passed through 0.45μ membrane filters prior to HPLC analysis of 20 μL of filtrate.
TnA reactions were run with L-serine as the 3-carbon substrate.

[3] = target: T2, tryptophanase (TnA) (Escherichia coli, UniProt P0A853); format: biochemical, E. coli; set-up: key: +: a clear ninhydrin-positive spot at the Rf of standard tryptophan derivatives after 16-65 h; (+): a weak spot in the product region; −: no product observed; NR: experiment not run; settings: indole derivative + L-serine + PLP, 37° C., 16-65 h, ninhydrin
T2 construct: made in house; host or cells: E. coli LMG194 (pBAD) or BL-21 (pET)
Protocol: (§1) A mixture containing 2 μmole of the indole derivative, 0.05 μmole of PLP and 50 μmol of L-serine in 40 mM KPi buffer in 8% v/v ethanol water, pH 7.5, was warmed to 37° C., then enzyme solution was added to give a final volume of 1 mL. Aliquots (100 μL) were quenched at intervals of 2, 6, and 24 hours or more in microcentrifuge capsules containing 25 μL of 6 M HCl. The quenched samples were evaporated in a Savant Speed-vac. The residues were resuspended in methanol/water (1:1, 50 μL) and analyzed by TLC on Silica gel GF254 plates alongside tryptophan and tryptamine standards, eluting with CH2Cl2/EtOH/H2O/HOAc 77:20:2:1. Products were visualized first by using short-wave UV light, then with ninhydrin spray reagent (1/1/98 w/v/v ninhydrin/HOAc/EtOH) followed by heating.
(§2) Substituted indoles were incubated with L-serine, PLP and enzyme (TrpBA or TnA) prior to TLC analysis as generally described in Example 6. Serine, which can be used instead of pyruvate and ammonia for tryptophan synthesis with TnA, was employed as the 3-carbon acid because pyruvate tended to obscure the tryptophan product spots when plates were visualized with ninhydrin. TnA-catalyzed formation of tryptophan was also faster when serine was the 3-carbon donor. Reaction rates for several substrates were also estimated by HPLC.
(§3) In Table 4, “+” indicates a clear ninhydrin-positive spot at the Rf of standard tryptophan derivatives after 16-65 h; “(+)” indicates a weak spot in the product region; “−” means no product observed, “NR” means experiment not run. ESMS=electrospray mass spectrometry. Unless otherwise indicated, the mass value given represents the singly-protonated molecular ion (M+1).

[4] = target: T3, E. coli DH5α tryptophan synthase (TrpBA) (Escherichia coli, UniProt P0A879); format: biochemical; set-up: key: +: a clear ninhydrin-positive spot at the Rf of standard tryptophan derivatives after 16-65 h; (+): a weak spot in the product region; −: no product observed; NR: experiment not run; settings: indole derivative + L-serine + PLP, 37° C., 16-65 h, ninhydrin
T3 construct: made in house; host or cells: E. coli LMG194 (pBAD) or BL-21 (pET)
Protocol: as §1, §2, §3

[5] = Tryptophan synthase activity of the enzyme preparation (290 nm assay); format: biochemical, E. coli
Protocol: (§4) Tryptophan synthase activity was assayed by monitoring the increase in absorbance at 290 nm of a mixture containing serine, indole and PLP (Higgins, W., et al., Biochemistry, 1979, 18, 4827). TnA-catalyzed tryptophan synthesis was also measured by the 290 nm assay, while the tryptophan lyase reaction rate was measured by monitoring the reduction in NADH in reaction mixtures containing L-tryptophan and lactate dehydrogenase, indicating the amount of pyruvate released. Tryptophan decarboxylase was assayed colorimetrically by monitoring the sabsorbance at 580 nm produced by serotonin (AAADs) or tryptamine (TDCs) following treatment of reaction aliquots with Ehrlich's reagent (4-N,N-(dimethyl)aminobenzaldehyde in ethanolic HCl; Nakazawa, H.; Kumagi, H.; Yamada, H. Biochem Biophys. Res. Commun., 1974, 61, 75-82). Serotonin could be detected with approximately 5-fold higher sensitivity by this method as compared with tryptamine. The Ehrlich reagent assay using a microtiter plate format for simultaneous analysis of multiple enzyme samples may also be used. HPLC analysis was performed on acid-quenched reaction aliquots by using a base-deactivated C8 reversed-phase support (Shandon Hypersil BD8). HPLC analysis of acid-quenched aliquots permitted calculation of a rate ratio of 4.5 to 1 for pkAAAD-catalyzed DOPA decarboxylation relative to that of L-5-hydroxytryptophan, in good agreement with the accepted ratio of approximately 5:1. (See Sourkes, T. L. Methods Enzymol., 1987, 142, 170-178, which is incorporated herein by reference.)
Reaction mixtures were prepared as in Example 6 in polymethacrylate or quartz spectrophotometer cuvettes, and the increase absorbance were measured immediately at 290 nm, assuming a change in extinction coefficient for the indole-tryptophan conversion is δ290=1.85 MM−1 cm^−1. For TrpBA, the rate at 37° C. is approximately 2.8 fold higher than at 23° C.
Activity is expressed as μmol product formed per minute, TrpBA activity is reported for the reaction: indole+serine−>tryptophan at room temperature as described in the next section. Tryptophanase is reported for the reaction: tryptophan−>indole+pyruvate+NH4^+ at room temperature. The rate of tryptophan synthesis for TrpBA under our assay conditions is approximately 3-fold higher at 37° C.

[6] = pH-rate profiles for tryptophan-metabolizing enzymes; format: biochemical; settings: for activity over the entire optimum pH range shown by TrpBA: pH 7.5 to 9.5
Description: Both AAADs TDC1 and TDC2 were active over the entire optimum range shown by TrpBA. These broad activity ranges make it clear that the coupled enzyme process is not limited by pH.

[7] = Decarboxylase activity of the enzyme preparations (Ehrlich's reagent); format: biochemical
Protocol: as §4
A mixture (0.95 mL) containing L-5-hydroxytryptophan (2 mM), PLP (0.25 mM) and pH 7.5 KPi buffer (44 mM) was warmed to 37° C., then 50 μL of enzyme was added. Reaction aliquots were quenched in microcentrifuge capsules containing 50 μL each of 6M HCl to quench the enzyme reaction at 2, 5, and 20 min. Quenched aliquots were heated at 50° C. for 40 min with 750 μL each of Ehrlich's reagent (2:24:74 w/v/v […]: conc HCl: ethanol). Absorbance was read at 580-nm and compared with standards of serotonin (10-250 μM) or tryptamine (50 to 2000 μM).
Decarboxylase enzyme activity was determined using L-5-hydroxytryptophan as the substrate unless otherwise stated.

[8] = Table 2, L-5-hydroxytryptophan as substrate

| Molecule | formation of tryptophan derivative and tryptamine (HPLC peaks) [1] | Relative rate (TrpBA) [2] | TnA (tryptophan product spot, TLC analysis) [3] | TrpBA (tryptophan product spot, TLC analysis) [4] | activity over the entire optimum pH range shown by TrpBA [6] | Crude specific activity [7, 8] [units/mg] | Purified specific activity [7, 8] [Units/mg] | Crude specific activity ([7]; Table 3, decarboxylases) [units/mg] | other results |
| --- | --- | --- | --- | --- | --- | --- | --- | --- | --- |
| Cc1cc2ccccc2[nH]1 [2-methyl-, 2-methylindole] | a second peak representing formation of tryptamine | 20.6* % | + | − |  |  |  |  |  |
| COc1ccc2[nH]ccc2c1 [5-methoxy-] | a second peak representing formation of tryptamine | 19.0% | + | + |  |  |  |  |  |
| B1 |  |  |  |  |  |  |  |  | rate at 37° C. relative to 23° C. ([5]; 290 nm assay): approximately 2.8 fold; Crude specific activity ([5]; Table 3, TrpBA): 1.2 units/mg; Crude spec activity ([5]; TrpBA, indole+serine->tryptophan, room temperature): 1.2; Purified specific activity ([5]; TrpBA, indole+serine->tryptophan, room temperature, after DEAE cellulose): 2.2 Units/mg; rate of tryptophan synthesis at 37° C. relative to room temperature ([5]; assay conditions of Table 1): approximately 3 fold; percent of the maximum rate ([6]; between pH 7.5 and 9.5, L-serine and indole): at least 90% |
| B2 |  |  |  |  | active | 0.11 | 0.3 | 0.11 |  |
| B3 |  |  |  |  | active | 0.12 | 0.2 | 0.12 |  |
